Data from article PMC11931385, “Structural and functional analysis of cancer-associated missense variants in the retinoblastoma protein pocket domain” (The Journal of Biological Chemistry, 2025).
Substitutions are numbered along the chain they refer to. Numbers in names are those of the source. No end group written: not given here. TMR = tetramethyl rhodamine dye

T1: Rb^P R621H (human, UniProt P06400 380-788, R621H)
T1 construct: also called variant 42
T1 sequence (looked up): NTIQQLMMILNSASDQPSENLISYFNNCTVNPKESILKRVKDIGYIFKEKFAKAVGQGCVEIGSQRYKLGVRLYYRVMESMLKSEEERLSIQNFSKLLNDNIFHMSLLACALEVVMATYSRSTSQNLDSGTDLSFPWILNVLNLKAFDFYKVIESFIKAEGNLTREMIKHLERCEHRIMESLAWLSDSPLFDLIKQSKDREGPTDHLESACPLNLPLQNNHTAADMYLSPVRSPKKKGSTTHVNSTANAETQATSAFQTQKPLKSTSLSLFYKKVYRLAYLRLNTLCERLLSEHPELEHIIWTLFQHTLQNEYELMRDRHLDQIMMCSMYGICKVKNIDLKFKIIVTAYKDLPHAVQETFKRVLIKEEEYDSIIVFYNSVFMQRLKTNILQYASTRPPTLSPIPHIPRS

T2: Rb^P T687I (human, UniProt P06400 380-788, T687I)
T2 construct: also called variant 59
T2 sequence (looked up): T1 sequence (looked up) with H242R, T308I

T3: Rb^P S534R (human, UniProt P06400 380-788, S534R)
T3 construct: also called variant 23
T3 sequence (looked up): T1 sequence (looked up) with S155R, H242R

T4: Rb^P R451S (human, UniProt P06400 380-788, R451S)
T4 construct: also called variant 7
T4 sequence (looked up): T1 sequence (looked up) with R72S, H242R

T5: Rb^P H673P (human, UniProt P06400 380-788, H673P)
T5 construct: also called variant 54
T5 sequence (looked up): T1 sequence (looked up) with H242R, H294P

B1: TMR-E2F1^TD, peptide of the E2F1 transactivation domain (peptide)
peptide: {TMR}-GEGIRDLFDCDFGDLTPLD
notes: also called E2F^TD; source: synthetic peptide, bought: GenScript
B2: TMR-E7^LxCxE, LxCxE peptide of the E7 oncoprotein from HPV (peptide)
peptide: DLYCYEQLN
modifications: also: TMR label, position not given here
notes: source: synthetic peptide, bought: GenScript

Experiments:
Assay in all cases: fluorescence polarisation; 25 °C; unlabeled Rb^P titrated against 1.5 nM TMR-E2F1^TD or 7.5 nM TMR-E7^LxCxE; 25 mM Tris pH 8.0, 200 mM NaCl, 1 mM DTT, 0.1% Tween-20; 2 min incubation; quadratic fit; apparent Kd for the variants, Kd for WT
Conditions in all cases: both partners purified
[1] = target: T1, Rb^P R621H
[2] = target: T2, Rb^P T687I
[3] = target: T3, Rb^P S534R
[4] = target: T4, Rb^P R451S
[5] = target: T5, Rb^P H673P

| Binder | Kd [1] [µM] | Kd [2] [µM] | Kd [3] [µM] | Kd [4] [µM] | Kd [5] [µM] |
| --- | --- | --- | --- | --- | --- |
| B1 | 0.03 | 0.02 | 9.28 | 0.026 | 0.042 |
| B2 | 0.01 | 0.013 | 0.004 | 0.009 | 0.024 |
